7 molecules from patent US20140186348A1 (NOVELMED THERAPEUTICS, published 2014) can be followed below.

Assay [1] has as its target T1, human properdin (human, UniProt P27918 28-469).
T1 construct: also called antigen properdin
Kind of assay: competition ELISA: varied antibody with 50 nM properdin on C3b-coated wells.

The target in assay [2] is T1, human properdin. Kind of assay: properdin ELISA (FIG. 27). For orientation: In an ELISA, binding on a coated surface is turned into a signal by an enzyme label.
Assay [3] has as its target T1, human properdin. Kind of assay: cell-based or functional assay.
The target in assay [4] is T1, human properdin. Kind of assay: properdin ELISA.

T1 sequence (P27918 28-469 limits assumed): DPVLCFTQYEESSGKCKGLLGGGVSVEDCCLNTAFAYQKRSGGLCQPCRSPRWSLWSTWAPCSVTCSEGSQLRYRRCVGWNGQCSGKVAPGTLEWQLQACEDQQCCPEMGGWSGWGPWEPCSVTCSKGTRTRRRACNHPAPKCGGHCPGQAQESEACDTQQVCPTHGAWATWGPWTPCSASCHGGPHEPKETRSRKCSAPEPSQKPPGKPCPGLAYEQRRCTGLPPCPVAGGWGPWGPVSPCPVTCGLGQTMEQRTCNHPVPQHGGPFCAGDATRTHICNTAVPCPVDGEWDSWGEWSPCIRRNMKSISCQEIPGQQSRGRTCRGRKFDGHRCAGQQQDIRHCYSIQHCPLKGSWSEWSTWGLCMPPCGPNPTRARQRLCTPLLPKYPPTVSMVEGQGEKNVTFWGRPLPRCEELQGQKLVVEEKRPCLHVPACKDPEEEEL

B1: NM9401-F(ab′)2 (other)
VH: QVQLQQSAPELARPGASVKMSCTASGYIFTNYPIHWVKQRPGQGLEWIGFIDPGGGYDEPDERFRDRATLTADKSSSTAYMQLSSLTSEDSAIYYCARRGGGYYLDYWGQGTTLTVSSAKTT
VL: DIQMTQTTSSLSASLGDRVTISCRASQDISFFLNWYQQKPDGTVKLLIYYTSRYHSGVPSRFSGSGSGTDFSLTINNLEQEDFATYFCQHGNTLPWTFGGGTKLEIKRADAAPTVSIFPPSSEQLTSGGASVVCFLNN
notes: F(ab′)2 fragment of the murine NM9401 IgG
For the molecule B1, in the assay with human properdin [1], the “concentration inhibiting properdin binding to C3b (quantity not named, IC50 implied)” value came out at 29 nM and the “molar ratio of antibody to properdin” value was found to be 0.5.

B2: BAP010hum02 (humanized anti-properdin monoclonal antibody) (antibody, V domains shown)
VH: QVQLQESGPGLVKPSQTLSLTCTVSGYIFTNYPIHWVRQAPGKGLEWVSFIDPGGGYDEPDERFRDRVTISVDTSKNQFSLKLSSVTAADTAVYYCARRGGGYYLDYWGQG
VL: EIVLTQSPATLSLSPGERATLSCRASQDISFFLNWFQQRPGQSPRRLIYYTSRYHSGIPPRFSGSGYGTDFTLTINNIESEDAAYYFCQHGNTLPWTFGQG
notes: Labelled _HC and _LC; Expressed as human IgG from BioAtla's mammalian vector; also called BAP010hum02_HC
On to B2, for which the binding result with human properdin [2] is reported as “binds”.

B3: BAP010hum03 (humanized anti-properdin monoclonal antibody) (antibody, V domains shown)
VH: EVQLVQSGAEVKKPGESLRISCKGSGYIFTNYPIHWIRQSPSRGLEWLGFIDPGGGYDEPDERFRDRVTISADKSISTAYLQWSSLKASDTAMYYCARRGGGYYLDYWGQG
VL: DIQMTQSPSSLSASVGDRVTITCRASQDISFFLNWYQQKPGKAPKLLIYYTSRYHSGVPSRFSGSGSGTEFTLTISSLQSEDFAVYYCQHGNTLPWTFGQG
notes: Labelled _HC and _LC; Expressed as human IgG; also called BAP010hum03_HC
Turning to B3, the binding result in the assay with human properdin [2] is listed as “binds”.

B4: BAP010hum10 (humanized anti-properdin monoclonal antibody) (antibody, V domains shown)
VH: QVQLQESGPGLVKPSQTLSLTCTVSGYIFTNYPIHWVRQATGQGLEWMGFIDPGGGYDEPDERFRDRVTITADKSTSTAYMELSSLRSEDTAVYYCARRGGGYYLDYWGQG
VL: DIQMTQSPSSLSASVGDRVTITCRASQDISFFLNWYQQKPGKAPKLLIYYTSRYHSGIPPRFSGSGYGTEFTFTISSLEAEDAATYYCQHGNTLPWTFGQG
notes: Labelled _HC and _LC; Expressed as human IgG; also called BAP010hum10_HC
As for B4, the binding result with human properdin [2] is given as “binds”.

B5: NM9401-IgG (murine anti-properdin monoclonal antibody, IgG1) (antibody, V domains shown)
VH: QVQLQQSAPELARPGASVKMSCTASGYIFTNYPIHWVKQRPGQGLEWIGFIDPGGGYDEPDERFRDRATLTADKSSSTAYMQLSSLTSEDSAIYYCARRGGGYYLDYWGQGTTLTVSS
VL: DIQMTQTTSSLSASLGDRVTISCRASQDISFFLNWYQQKPDGTVKLLIYYTSRYHSGVPSRFSGSGSGTDFSLTINNLEQEDFATYFCQHGNTLPWTFGGGTKLEIKR
Take B5: the “erythrocyte lysis assay using rabbit erythrocytes, IC50” value with human properdin [3] fell in the range of 20 to 30 nM.

B6: NM9401-Fab (Fab, V domains shown)
VH: QVQLQQSAPELARPGASVKMSCTASGYIFTNYPIHWVKQRPGQGLEWIGFIDPGGGYDEPDERFRDRATLTADKSSSTAYMQLSSLTSEDSAIYYCARRGGGYYLDYWGQGTTLTVSS
VL: DIQMTQTTSSLSASLGDRVTISCRASQDISFFLNWYQQKPDGTVKLLIYYTSRYHSGVPSRFSGSGSGTDFSLTINNLEQEDFATYFCQHGNTLPWTFGGGTKLEIKR
notes: Fab fragment of the murine NM9401 IgG
On to B6, for which, in the assay with human properdin [1], the “concentration inhibiting properdin binding to C3b (quantity not named, IC50 implied)” value was 72 nM and the “molar ratio of antibody to properdin” value was 1.2.

B7: BAP010-1 (chimeric anti-properdin IgG1) (antibody, V domains shown)
VH: QVQLQQSAPELARPGASVKMSCTASGYIFTNYPIHWVKQRPGQGLEWIGFIDPGGGYDEPDERFRDRATLTADKSSSTAYMQLSSLTSEDSAIYYCARRGGGYYLDYWGQGTTLTVSS
VL: DIQMTQTTSSLSASLGDRVTISCRASQDISFFLNWYQQKPDGTVKLLIYYTSRYHSGVPSRFSGSGSGTDFSLTINNLEQEDFATYFCQHGNTLPWTFGGGTKLEIK
notes: Murine variable domains (heavy chain clone mH6-3g, light chain clone mK10) fused in frame to a human IgG1 constant region and a human kappa constant region; also called chimeric anti-properdin monoclonal antibody; recombinant antibody BAP010-1
As a reminder, the Kd is a measure of binding affinity in units of concentration. Read a high Kd as a looser complex. Consider B7, for which the Kd with human properdin [4] was about 0.054 nM. Further, the “erythrocyte lysis assay using rabbit erythrocytes, IC50” value in the assay with human properdin [3] lay in the range of 20 to 30 nM.
